Reference: patent publication US5851528

Tests used:
[1] = molecular target: C5 convertase (formed in human serum) (human)
[2] = molecular target: C3/C5 convertases
[3] = molecular target: C3/C5 convertases; remark: listed apart in the source

| IC50, inhibition of C5a production in human serum (competition radioimmunoassay for C5a desArg) [1] | Substance | IC50, inhibition of alternative pathway complement-mediated lysis of unsensitized guinea pig RBC by human serum [2] | IC50, inhibition of classical pathway complement-mediated lysis of IgM-sensitized sheep RBC by human serum [3] |
| --- | --- | --- | --- |
| 300 nM | CAB-2 (complement activation blocker-2), recombinant chimeric protein encoded by the MCP-DAF expression vector | 100 nM | 30 nM |
| – | mixture of sMCP + sDAF added together on an equal molar basis (pool or library) | – | 200 nM |
| – | soluble DAF (sDAF), soluble decay accelerating factor (from UniProt P08174) | – | 100 nM |
| 5000 nM | soluble MCP (sMCP), soluble membrane cofactor protein recombinant protein (from UniProt P15529-3) | 350 nM | 7000 nM |
